Results from the supplement of paper PMC10126150.
± gives the standard deviation of the averaged measurements.

System: ATP
Test: switch fluorescence ratio, 500 uM ATP over buffer (Cy3 cluster intensity, sum of 5 cycles each) (fold (ratio)); higher = stronger signal-on switching upon ATP binding; sequences stand for … in TCGTCGGCAGCGTCAGATGTGTATAAGAGACAGTTTTTTTTTTTTTTTTTTTTTTTTT…TC
Conditions: aptamer strand: ATP DNA aptamer (quencher-CACCTGGGGGAGTATTGCGGAGGAAGG + anchor), 100 nM annealed; ATP concentration: 500 uM
In short: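 Five buffer/ATP imaging cycles were run on Cy3-labelled switching-strand clusters on a modified Illumina MiSeq flow-cell, with NaOH stripping and re-annealing between cycles. In each cycle, clusters annealed to 100 nM quencher-labelled ATP aptamer were imaged in selection buffer, then after 15 min with 500 uM ATP at 22 °C. Per cluster, the fluorescence ratio is summed target-cycle over summed buffer-cycle Cy3 intensity, averaged per switch-domain sequence. Only clusters within 100-1000 RFU were kept.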
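Also: ATP exposure 15 min at 22 °C before imaging.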

Sequence	switch fluorescence ratio
AAAGGGAAT	1.02 ± 0.021
AAAGGGCATG	1 ± 0.011
AAAGGGGAGG	1.01 ± 0.033
AAAGGGGGAA	0.998 ± 0.026
AAAGGGGGT	1.01 ± 0.026
AAAGGGGGTG	1.02 ± 0.047
AAAGGGGTAG	0.9975 ± 0.0069
AAAGGGTACT	1.08 ± 0.064
AAAGGGTTGT	1.009 ± 0.009
AAAGGTGTTG	1.16 ± 0.23
AAAGGTTAAG	0.991 ± 0.015
AAAGGTTAGG	0.958 ± 0.029
AAAGGTTTCG	0.989 ± 0.015
AAAGGTTTTG	1 ± 0.02
AAAGTAATGG	1.04 ± 0.022
AAAGTAGAGG	0.969 ± 0.029
AAAGTAGGCT	1.01 ± 0.053
AAAGTATGCT	0.9898 ± 0.0015
AAAGTATTAA	1.014 ± 0.0026
AAAGTCAAGG	0.9933 ± 0.0029
AAAGTCTAGC	1.01 ± 0.019
AAAGTGAGGG	0.986 ± 0.013
AAAGTGATAT	1.01 ± 0.028

Sequence	switch fluorescence ratio
AAAGTGCTCT	0.981 ± 0.038
AAAGTGTACG	0.999 ± 0.03
AAAGTTAAGT	0.976 ± 0.0036
AAAGTTAGGG	1.01 ± 0.038
AAAGTTGCGG	1.016 ± 0.0045
AAAGTTGGAT	0.977 ± 0.012
AAAGTTTCGC	1 ± 0.019
AAAGTTTGAC	1 ± 0.035
AAATAAAATG	0.932 ± 0.11
AAATAAAATT	0.982 ± 0.03
AAATAACTGA	0.994 ± 0.029
AAATAAGTGA	0.979 ± 0.013
AAATACGGTG	1.17 ± 0.16
AAATATACGA	1.16 ± 0.15
AAATATATGT	0.997 ± 0.046
AAATATGGTT	1.02 ± 0.035
AAATCACGTA	1.1818 ± 4.2e-05
AAATCGATGT	1 ± 0.02
AAATCGGCTC	0.989 ± 0.025
AAATCTCATC	1.03 ± 0.014
AAATGAAGGG	1 ± 0.058
AAATGACGGG	1.005 ± 0.0076
AAATGAGTAG	1.02 ± 0.013

Sequence	switch fluorescence ratio
AAATGAGTTT	1.02 ± 0.013
AAATGATAAG	0.998 ± 0.021
AAATGCTATA	1.01 ± 0.022
AAATGCTTCA	1.03 ± 0.019
AAATGCTTTA	1.03 ± 0.022
AAATGGCCAC	1.01 ± 0.035
AAATGGGACC	1.012 ± 0.0042
AAATGGGCTG	1 ± 0.09
AAATGGTACT	1.01 ± 0.035
AAATGGTCT	1.016 ± 0.01
AAATGTAAGG	0.99 ± 0.034
AAATGTGGAG	0.984 ± 0.021
AAATGTTAAG	1.01 ± 0.032
AAATGTTTGC	1.01 ± 0.018
AAATTAAGGA	1.01 ± 0.031
AAATTAATCC	1.04 ± 0.038
AAATTAATTG	1.02 ± 0.036
AAATTACATT	1.02 ± 0.021
AAATTATCCA	1.016 ± 0.0092
AAATTCGACG	1.05 ± 0.046
AAATTTAGGT	1.01 ± 0.038
AAATTTCATA	1.03 ± 0.01
AAATTTGGTG	1.14 ± 0.14

Sequence	switch fluorescence ratio
AAATTTTAGG	1.034 ± 0.0013
AAATTTTTAG	1.02 ± 0.018
AAATTTTTGC	1.05 ± 0.015
AAATTTTTGT	1.001 ± 0.0065
AACAAACGGT	1.36 ± 0.057
AACAAATGGG	1.02 ± 0.052
AACAAGGGGA	1.07 ± 0.067
AACAAGTATG	1 ± 0.044
AACAATTATA	1.011 ± 0.0078
AACACGGCTG	1.05 ± 0.027
AACACTGATT	1.04 ± 0.026
AACAGCCACA	1.11 ± 0.028
AACAGGATGC	1.027 ± 0.0039
AACAGGGGCT	1.09 ± 0.12
AACAGTGATA	1.01 ± 0.027
AACAGTGTAG	1 ± 0.013
AACAGTTCTG	0.986 ± 0.027
AACAGTTTGT	1 ± 0.017
AACATAGTAG	0.96446 ± 0.0004
AACATGCGCA	0.9712 ± 0.0047
AACATTTTAA	0.965 ± 0.04
AACATTTTTG	0.998 ± 0.026
AACCAATCGA	1.04 ± 0.05

Sequence	switch fluorescence ratio
AACCATGGGT	1.01 ± 0.03
AACCCGGATT	0.9958 ± 0.0035
AACCGGTGCA	1.08 ± 0.017
AACCGTGGCG	1.07 ± 0.041
AACCTCTTAG	0.992 ± 0.026
AACCTGCTAA	1.057 ± 0.0014
AACCTGTCGG	1.01 ± 0.028
AACGAAGATT	1.01 ± 0.019
AACGAATAAA	0.994 ± 0.025
AACGACCCCC	1.74 ± 0.31
AACGAGACCA	1.07 ± 0.052
AACGAGAGGG	1.04 ± 0.035
AACGAGTGTG	1.01 ± 0.052
AACGATAAAT	1.03 ± 0.014
AACGATAGCA	1.08 ± 0.016
AACGATTGGG	0.948 ± 0.027
AACGGAACTA	1.15 ± 0.019
AACGGACAAA	1.2 ± 0.052
AACGGACGGC	1.48 ± 0.098
AACGGCAGGT	1.03 ± 0.013
AACGGCAGTG	1.03 ± 0.022
AACGGCGCTA	1.045 ± 0.0057
AACGGGACCT	1.33 ± 0.081

Sequence	switch fluorescence ratio
AACGGGATAT	1.09 ± 0.0021
AACGGGATGG	1.02 ± 0.036
AACGGGGATA	1.049 ± 0.0065
AACGGGTAGC	0.993 ± 0.029
AACGGTCTGA	1.009 ± 0.0024
AACGGTTGAT	0.974 ± 0.015
AACGGTTTGG	1.01 ± 0.021
AACGTGAGGG	0.989 ± 0.051
AACGTGATTA	1.07 ± 0.023
AACGTGTTTT	1.042 ± 0.006
AACGTTATCT	1.04 ± 0.015
AACGTTCGCC	0.987 ± 0.032
AACGTTGTAC	1.51 ± 0.037
AACTAGATCG	1.02 ± 0.028
AACTAGGGTG	1.12 ± 0.013
AACTATATGG	1.046 ± 0.0081
AACTCACGGG	1.63 ± 0.083
AACTCAGCCG	1.03 ± 0.013
AACTCCAGTA	1.008 ± 0.005
AACTCCCTTT	1.067 ± 0.0086
AACTCCGGCG	1.129 ± 0.0087
AACTCTAAAA	1.05 ± 0.051
AACTGAGACT	1.02 ± 0.032

Sequence	switch fluorescence ratio
AACTGAGTTT	1.008 ± 0.0015
AACTGCGGTC	1.016 ± 0.0031
AACTGGCAAT	1.5 ± 0.072
AACTGTAAAT	1.25 ± 0.2
AACTGTGGAA	0.991 ± 0.015
AACTGTTTCG	0.9707 ± 0.0013
AACTTGTTAG	1.01 ± 0.016
AACTTTGTTG	1 ± 0.011
AACTTTTAGT	0.99353 ± 0.00074
AACTTTTTCG	1.012 ± 0.0034
AACTTTTTTA	0.964 ± 0.017
AAGAAAACGA	0.998 ± 0.011
AAGAAAAGGA	1.02 ± 0.017
AAGAAAGGTA	1.01 ± 0.025
AAGAAAGTCG	0.9998 ± 0.0052
AAGAAATAAA	0.9744 ± 0.0095
AAGAAATGGT	1.05 ± 0.043
AAGAACTTAG	1.026 ± 0.0074
AAGAAGCAGA	1 ± 0.032
